Laboratory results published in paper PMC11510292, “Heterobivalent Dual-Target Peptide for Integrin-αvβ3 and Neuropeptide Y Receptors on Breast Tumor” (Pharmaceuticals, 2024).
Where two headings read alike, the source gives them in different places.

Columns and labels:
[1] = Ex vivo biodistribution and blood clearance in healthy Balb/c mice; conditions: for tissue uptake at 5 min / tissue uptake at 0.5 h / tissue uptake at 1 h / tissue uptake at 2 h / tissue uptake at 4 h / tissue uptake at 6 h: mouse, 37 MBq, total radioactivity; for tissue uptake at 5 min: 5 min after IV injection; for tissue uptake at 0.5 h: 30 min after IV injection; for tissue uptake at 1 h: 1 h after IV injection; for tissue uptake at 2 h: 2 h after IV injection; for tissue uptake at 4 h: 4 h after IV injection; for tissue uptake at 6 h: 6 h after IV injection
Experimental: The ex vivo biodistribution analysis performed with healthy Balb/c mice is presented in Figure 2 and Figure 3, and Table 1. Values are expressed as a percentage of injected activity per gram (%IA/g) of tissue and per milliliter (%IA/mL) of blood.
(§1) […] Animals were deeply anesthetized and euthanized at the corresponding biodistribution time point. Blood, brain, spleen, heart, stomach, liver, lungs, kidneys, pancreas, muscle, bone, small intestine, and large intestine were collected and weighed. The radioactivity of each organ/tissue was then determined using the above-mentioned automatic gamma counter. The radioactivity was evaluated as the percentage of injected activity per gram of organ/tissue (%IA/g), using the same injected dose activity as a standard. Receptor-blocking studies in tumor models were also carried out by co-administration of 100 μg of cold-conjugated peptide along with radiopeptide.

[2] = Biodistribution in SCID mice bearing MCF-7 xenografts; format: in vivo; conditions: female, SCID, mouse, total radioactivity, MCF-7 model, 60 min p.i., 0.1 mL/18.5 MBq IV
Experimental: To evaluate the uptake of the radiolabeled peptide by breast tumors, additional biodistribution studies were performed in SCID mice bearing MCF-7 and MDA-MB-231 xenografts (Table 2). […] The tumor uptakes of the radiolabeled conjugate were 9.30 ± 3.25% for MCF-7 and 4.93 ± 1.01% for MDA-MB-231 (Figure 5). The tumor-to-muscle ratios were 5.65 ± 0.94 for the MCF-7 model and 7.78 ± 3.20 for the MDA-MB-231 model (Figure 6).
The animals used in this experiment were provided by the Nuclear and Energy Research Institute (IPEN/CNEN-SP) vivarium. Every effort was made to minimize animal suffering per International Ethical Guidelines. The experimental protocols used in this study were approved by the Scientific Ethics Committee of the IPEN/CNEN-SP. Adult female SCID mice were maintained under controlled environmental conditions (12 h light-dark cycle; constant temperature 21 ± 2 °C), with free access to water and food. Suspensions of cells (5 × 10^6 in 0.1 mL) were subcutaneously injected into the upper back regions of the mice.
as §1

[3] = bone, mean ± SD n = 5, read-out: Bone uptake
[4] = brain, mean ± SD n = 5, read-out: Brain uptake
[5] = heart, mean ± SD n = 5, read-out: Heart uptake
[6] = lung, mean ± SD n = 5, read-out: Lung uptake
[7] = muscle, mean ± SD n = 5, read-out: Muscle uptake
[8] = pancreas, mean ± SD n = 5, read-out: Pancreas uptake
[9] = spleen, mean ± SD n = 5, read-out: Spleen uptake
[10] = stomach, mean ± SD n = 5, read-out: Stomach uptake

## CCCC[C@H](NC(=O)[C@H](CCCNC(=N)N)NC(=O)[C@H](Cc1c[nH]c2ccccc12)NC(=O)[C@H](CSCC(=O)NCCCC[C@@H]1NC(=O)[C@@H](Cc2ccccc2)NC(=O)[C@H](CC(=O)O)NC(=O)CNC(=O)[C@H](CCCNC(=N)N)NC1=O)NC(=O)[C@@H]1CCCN1C(=O)[C@H](CC(N)=O)NC(=O)[C@@H](NC(=O)COCCOCCNC(=O)c1ccc(NN)nc1)[C@@H](C)CC)C(=O)N[C@@H](CCCNC(=N)N)C(=O)N[C@@H](Cc1ccc(O)cc1)C(N)=O [[^99mTc]HYNIC-cRGDfk-NPY, metal not drawn]
[1]; IV, 0.05 mL/18.5 MBq, exponential decay fit of %IA/mL
  Blood half-life: 23.04 min
[1]; IV, within 1 h
  decrease in blood activity: approximately 90%
[1]; from low brain uptake
  crossing of blood-brain barrier: did not cross the blood–brain barrier
[1]; [3]
  tissue uptake at 5 min: 3.19 ± 0.76 %ID/g
  tissue uptake at 0.5 h: 3.71 ± 1.37 %ID/g
  tissue uptake at 1 h: 2.52 ± 1.67 %ID/g
  tissue uptake at 2 h: 0.71 ± 0.22 %ID/g
  tissue uptake at 4 h: 0.46 ± 0.14 %ID/g
  tissue uptake at 6 h: 0.54 ± 0.28 %ID/g
[1]; [4]
  tissue uptake at 5 min: 0.37 ± 0.11 %ID/g
  tissue uptake at 0.5 h: 0.22 ± 0.15 %ID/g
  tissue uptake at 1 h: 0.12 ± 0.03 %ID/g
  tissue uptake at 2 h: 0.07 ± 0.01 %ID/g
  tissue uptake at 4 h: 0.04 ± 0.01 %ID/g
  tissue uptake at 6 h: 0.04 ± 0.01 %ID/g
[1]; [5]
  tissue uptake at 5 min: 4.3 ± 1.32 %ID/g
  tissue uptake at 0.5 h: 3.21 ± 1.22 %ID/g
  tissue uptake at 1 h: 1.04 ± 0.23 %ID/g
  tissue uptake at 2 h: 0.55 ± 0.07 %ID/g
  tissue uptake at 4 h: 0.35 ± 0.12 %ID/g
  tissue uptake at 6 h: 0.33 ± 0.09 %ID/g
[1]; [6]
  tissue uptake at 5 min: 9.8 ± 3.16 %ID/g
  tissue uptake at 0.5 h: 4.8 ± 2.67 %ID/g
  tissue uptake at 1 h: 2.64 ± 0.83 %ID/g
  tissue uptake at 2 h: 1.17 ± 0.2 %ID/g
  tissue uptake at 4 h: 0.63 ± 0.17 %ID/g
  tissue uptake at 6 h: 1.65 ± 2.02 %ID/g
[1]; [7]
  tissue uptake at 5 min: 2.16 ± 0.62 %ID/g
  tissue uptake at 0.5 h: 1.5 ± 0.41 %ID/g
  tissue uptake at 1 h: 0.68 ± 0.33 %ID/g
  tissue uptake at 2 h: 0.39 ± 0.09 %ID/g
  tissue uptake at 4 h: 0.22 ± 0.07 %ID/g
  tissue uptake at 6 h: 0.21 ± 0.03 %ID/g
[1]; [8]
  tissue uptake at 5 min: 3.39 ± 0.92 %ID/g
  tissue uptake at 0.5 h: 2.52 ± 0.89 %ID/g
  tissue uptake at 1 h: 1.17 ± 0.45 %ID/g
  tissue uptake at 2 h: 0.53 ± 0.1 %ID/g
  tissue uptake at 4 h: 0.35 ± 0.12 %ID/g
  tissue uptake at 6 h: 0.34 ± 0.11 %ID/g
[1]; [9]
  tissue uptake at 5 min: 6.06 ± 2.9 %ID/g
  tissue uptake at 0.5 h: 6.14 ± 2.29 %ID/g
  tissue uptake at 1 h: 3.41 ± 1.17 %ID/g
  tissue uptake at 2 h: 2.22 ± 0.37 %ID/g
  tissue uptake at 4 h: 1.69 ± 0.34 %ID/g
  tissue uptake at 6 h: 1.98 ± 0.63 %ID/g
[1]; [10]
  tissue uptake at 5 min: 8.05 ± 2.56 %ID/g
  tissue uptake at 0.5 h: 7.17 ± 1.38 %ID/g
  tissue uptake at 1 h: 3.97 ± 0.78 %ID/g
  tissue uptake at 2 h: 2.62 ± 0.68 %ID/g
  tissue uptake at 4 h: 1.81 ± 0.5 %ID/g
  tissue uptake at 6 h: 1.79 ± 0.58 %ID/g
[2]; bone, Block with excess cold peptide, n = 3, read-out: Bone uptake
  tissue uptake at 1 h: 1.08 ± 0.77 %ID/g
[2]; bone, Non-Block, n = 5, read-out: Bone uptake
  tissue uptake at 1 h: 1.4 ± 0.72 %ID/g
[2]; brain, Block with excess cold peptide, n = 3, read-out: Brain uptake
  tissue uptake at 1 h: 0.08 ± 0.01 %ID/g
